Laboratory results as given in paper PMC8363759 (Cell reports, 2021).

Experiments:
h5MP1 (WT) = molecular target: T1, h5MP1 (WT) (human, UniProt Q9Y6E2 1-419); experiment: ITC
T1 sequence (looked up): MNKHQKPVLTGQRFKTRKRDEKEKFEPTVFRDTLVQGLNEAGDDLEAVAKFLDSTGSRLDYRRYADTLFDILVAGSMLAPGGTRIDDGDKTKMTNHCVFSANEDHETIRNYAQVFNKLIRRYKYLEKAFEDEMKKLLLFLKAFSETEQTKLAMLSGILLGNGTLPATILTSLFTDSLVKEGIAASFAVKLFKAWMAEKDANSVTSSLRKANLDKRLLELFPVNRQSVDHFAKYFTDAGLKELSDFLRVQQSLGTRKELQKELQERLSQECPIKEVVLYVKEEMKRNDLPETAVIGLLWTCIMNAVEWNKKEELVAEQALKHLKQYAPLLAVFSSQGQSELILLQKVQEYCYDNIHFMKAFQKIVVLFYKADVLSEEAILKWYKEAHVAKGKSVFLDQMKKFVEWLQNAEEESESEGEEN

h5MP1-BN1 = molecular target: T2, h5MP1-BN1 (human, UniProt Q9Y6E2 1-419, K380Q | K383Q | H386Q | K389Q | K391Q); experiment: ITC
T2 sequence (looked up): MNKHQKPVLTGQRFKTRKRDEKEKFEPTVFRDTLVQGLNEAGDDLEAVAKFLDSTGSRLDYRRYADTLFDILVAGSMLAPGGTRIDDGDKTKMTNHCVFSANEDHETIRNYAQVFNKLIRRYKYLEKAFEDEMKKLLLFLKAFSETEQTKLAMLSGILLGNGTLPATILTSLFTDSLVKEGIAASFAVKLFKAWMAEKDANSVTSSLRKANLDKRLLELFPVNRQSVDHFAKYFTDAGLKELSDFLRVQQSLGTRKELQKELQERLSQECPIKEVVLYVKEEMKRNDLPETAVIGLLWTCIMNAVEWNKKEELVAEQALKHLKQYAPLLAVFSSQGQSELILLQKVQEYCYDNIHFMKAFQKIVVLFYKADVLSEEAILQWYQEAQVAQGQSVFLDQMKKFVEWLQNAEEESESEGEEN

GST-h5MP1 = molecular target: T3, GST-h5MP1 (human, UniProt Q9Y6E2 1-419); experiment: pull-down
T3 sequence (looked up): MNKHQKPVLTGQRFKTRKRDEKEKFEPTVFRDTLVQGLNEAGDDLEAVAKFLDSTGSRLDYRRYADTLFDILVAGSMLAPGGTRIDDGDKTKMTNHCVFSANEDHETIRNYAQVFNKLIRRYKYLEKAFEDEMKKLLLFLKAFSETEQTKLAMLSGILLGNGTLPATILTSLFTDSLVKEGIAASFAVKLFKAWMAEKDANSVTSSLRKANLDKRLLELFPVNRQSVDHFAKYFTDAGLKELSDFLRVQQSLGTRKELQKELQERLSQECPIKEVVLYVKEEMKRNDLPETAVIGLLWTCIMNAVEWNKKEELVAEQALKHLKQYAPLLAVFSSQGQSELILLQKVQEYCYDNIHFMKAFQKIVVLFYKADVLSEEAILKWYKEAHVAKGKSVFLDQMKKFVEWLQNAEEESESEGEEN

B1: heIF2β_(53-136) (domain or fragment, human, UniProt P20042 53-136, looked up)
chain: DLEADEEDTRKKDASDDLDDLNFFNQKKKKKKTKKIFDIDEAEEGVKDLKIESDVQEPTEPEDDLDIMLGNKKKKKKNVKFPDE
B1: binds (h5MP1 (WT)); binds (h5MP1-BN1).

B2: GB-heIF3c_(20-102) (domain or fragment, human, UniProt Q99613 20-102, looked up)
chain: EELVTKPVGGNYGKQPLLLSEDEEDTKRVVRSAKDKRFEELTNLIRTIRNAMKIRDVTKCLEEFELLGKAYGKAKSIVDKEGV
B2: binds (GST-h5MP1).
